Test results taken from the supplement of paper PMC10126150.
± gives the standard deviation of the averaged measurements.

Tested on: ATP
Assay: switch fluorescence ratio, 500 uM ATP over buffer (Cy3 cluster intensity, sum of 5 cycles each) (fold (ratio)); higher = stronger signal-on switching upon ATP binding; sequences stand for … in TCGTCGGCAGCGTCAGATGTGTATAAGAGACAGTTTTTTTTTTTTTTTTTTTTTTTTT…TC
Settings: aptamer strand: ATP DNA aptamer (quencher-CACCTGGGGGAGTATTGCGGAGGAAGG + anchor), 100 nM annealed; ATP concentration: 500 uM
Method in brief: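 Switching-strand clusters labelled with Cy3 on a modified Illumina MiSeq flow-cell were annealed to 100 nM quencher-labelled ATP aptamer, imaged in selection buffer, and re-imaged after 15 min with 500 uM ATP at 22 °C. This was done over five cycles with NaOH stripping and re-annealing in between. The fluorescence ratio is summed target-cycle over summed buffer-cycle Cy3 intensity per cluster, averaged per switch-domain sequence, excluding clusters outside 100-1000 RFU.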
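Further: ATP exposure 15 min at 22 °C before imaging.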

| Sequence | switch fluorescence ratio |
| --- | --- |
| GGAAATAGTG | 0.966 ± 0.044 |
| GGAAATCACA | 1.01 ± 0.029 |
| GGAAATGACT | 1.01 ± 0.021 |
| GGAAATGGGG | 0.987 ± 0.11 |
| GGAAATTTTT | 0.973 ± 0.019 |
| GGAACACACG | 1.32 ± 0.039 |
| GGAACATAG | 0.9987 ± 0.0023 |
| GGAACCATAT | 0.997 ± 0.013 |
| GGAACCTCTG | 1.012 ± 0.0037 |
| GGAACGTAGG | 1.016 ± 0.0083 |
| GGAACGTTCT | 0.995 ± 0.046 |
| GGAACGTTGG | 0.973 ± 0.045 |
| GGAAGATTTT | 0.989 ± 0.058 |
| GGAAGCGCTC | 1 ± 0.02 |
| GGAAGGAGTC | 0.991 ± 0.019 |
| GGAAGGGGCC | 1.03 ± 0.086 |
| GGAAGGGGGC | 0.9707 ± 0.0066 |
| GGAAGGGGGT | 1.01 ± 0.12 |
| GGAAGGGGTA | 1.01 ± 0.048 |
| GGAAGGGTAT | 1 ± 0.03 |
| GGAAGTCCGG | 1.03 ± 0.022 |
| GGAATAGTTT | 1.03 ± 0.047 |
| GGAATCATAG | 1.06 ± 0.07 |
| GGAATCGGTC | 1 ± 0.051 |
| GGAATCTGGG | 0.983 ± 0.05 |

| Sequence | switch fluorescence ratio |
| --- | --- |
| GGAATCTGTA | 0.949 ± 0.022 |
| GGAATGCGCA | 1.028 ± 0.0068 |
| GGAATGGAAC | 1.01 ± 0.024 |
| GGAATGTTTT | 0.994 ± 0.023 |
| GGAATTACTT | 0.987 ± 0.031 |
| GGAATTCGGG | 1.01 ± 0.025 |
| GGAATTGTTT | 0.974 ± 0.048 |
| GGACAAGCGT | 0.987 ± 0.021 |
| GGACACGATT | 0.986 ± 0.051 |
| GGACAGGGGA | 1.87 ± 1.2 |
| GGACATAATT | 1.01 ± 0.029 |
| GGACCAAACG | 1.05 ± 0.024 |
| GGACCGGGAC | 1.12 ± 0.11 |
| GGACGCTGTG | 0.986 ± 0.043 |
| GGACGGCGGG | 1 ± 0.034 |
| GGACGGGATT | 1.02 ± 0.068 |
| GGACGGTCGG | 1.01 ± 0.052 |
| GGACGTCGGA | 1.05 ± 0.12 |
| GGACGTGGGA | 0.9944 ± 0.0036 |
| GGACTAAAAT | 1.08 ± 0.13 |
| GGACTAGGAA | 1.01 ± 0.026 |
| GGACTCTGCG | 1 ± 0.028 |
| GGACTGGCTA | 1.02 ± 0.035 |
| GGACTGGGCT | 0.9806 ± 0.0081 |
| GGACTTATGG | 0.9851 ± 0.0091 |

| Sequence | switch fluorescence ratio |
| --- | --- |
| GGACTTGGGC | 0.986 ± 0.036 |
| GGACTTGGGT | 0.9702 ± 0.0082 |
| GGAGAAAATG | 1.0023 ± 0.00074 |
| GGAGAAATGT | 0.998 ± 0.011 |
| GGAGAAGAGT | 1.04 ± 0.015 |
| GGAGAAGCGT | 1.04 ± 0.031 |
| GGAGACAGTT | 0.971 ± 0.024 |
| GGAGACGGGG | 0.989 ± 0.011 |
| GGAGAGGCAG | 0.975 ± 0.026 |
| GGAGAGGGCA | 1.016 ± 0.0077 |
| GGAGATATCT | 1.11 ± 0.0069 |
| GGAGATGTGG | 0.989 ± 0.011 |
| GGAGCAGTTT | 1.12 ± 0.019 |
| GGAGCATTTT | 1.78 ± 0.88 |
| GGAGCCGGGG | 1 ± 0.022 |
| GGAGCTTTGT | 0.98 ± 0.015 |
| GGAGGAAGG | 1.02 ± 0.019 |
| GGAGGAATTT | 1.01 ± 0.016 |
| GGAGGACGGG | 1 ± 0.027 |
| GGAGGATTGG | 0.958 ± 0.017 |
| GGAGGCAAGG | 1.1 ± 0.054 |
| GGAGGCAGGG | 0.9965 ± 0.0096 |
| GGAGGCCTCG | 0.982 ± 0.018 |
| GGAGGCGGGA | 1.02 ± 0.045 |
| GGAGGCGGGC | 0.963 ± 0.12 |

| Sequence | switch fluorescence ratio |
| --- | --- |
| GGAGGGAGGA | 1.25 ± 0.3 |
| GGAGGGATAG | 1.26 ± 0.029 |
| GGAGGGCATC | 0.972 ± 0.0046 |
| GGAGGGCGGT | 0.9948 ± 0.0081 |
| GGAGGGGCGT | 0.993 ± 0.023 |
| GGAGGGGTGC | 1.04 ± 0.032 |
| GGAGTAAAGG | 1.06 ± 0.022 |
| GGAGTACCTG | 1.06 ± 0.046 |
| GGAGTACGGG | 0.999 ± 0.032 |
| GGAGTAGGCT | 0.938 ± 0.057 |
| GGAGTATGAG | 0.999 ± 0.021 |
| GGAGTCGGGG | 1 ± 0.012 |
| GGAGTCTGG | 1.0086 ± 0.0004 |
| GGAGTTAAGC | 1.03 ± 0.061 |
| GGAGTTGCGC | 1.03 ± 0.043 |
| GGAGTTGGGA | 1.021 ± 0.0066 |
| GGAGTTGGGG | 0.99 ± 0.02 |
| GGAGTTGGGT | 0.984 ± 0.08 |
| GGAGTTTGAC | 1.05 ± 0.068 |
| GGAGTTTGAG | 1 ± 0.0095 |
| GGATAAAGGT | 0.978 ± 0.018 |
| GGATAGGAGC | 0.964 ± 0.033 |
| GGATAGTAGG | 0.9956 ± 0.0083 |
| GGATAGTGTT | 0.988 ± 0.016 |
| GGATATAGGG | 1 ± 0.034 |
